One data set concerns the target T1, human beta-Klotho (Homo sapiens, UniProt Q86Z14).
T1 sequence (Q86Z14 1-1044): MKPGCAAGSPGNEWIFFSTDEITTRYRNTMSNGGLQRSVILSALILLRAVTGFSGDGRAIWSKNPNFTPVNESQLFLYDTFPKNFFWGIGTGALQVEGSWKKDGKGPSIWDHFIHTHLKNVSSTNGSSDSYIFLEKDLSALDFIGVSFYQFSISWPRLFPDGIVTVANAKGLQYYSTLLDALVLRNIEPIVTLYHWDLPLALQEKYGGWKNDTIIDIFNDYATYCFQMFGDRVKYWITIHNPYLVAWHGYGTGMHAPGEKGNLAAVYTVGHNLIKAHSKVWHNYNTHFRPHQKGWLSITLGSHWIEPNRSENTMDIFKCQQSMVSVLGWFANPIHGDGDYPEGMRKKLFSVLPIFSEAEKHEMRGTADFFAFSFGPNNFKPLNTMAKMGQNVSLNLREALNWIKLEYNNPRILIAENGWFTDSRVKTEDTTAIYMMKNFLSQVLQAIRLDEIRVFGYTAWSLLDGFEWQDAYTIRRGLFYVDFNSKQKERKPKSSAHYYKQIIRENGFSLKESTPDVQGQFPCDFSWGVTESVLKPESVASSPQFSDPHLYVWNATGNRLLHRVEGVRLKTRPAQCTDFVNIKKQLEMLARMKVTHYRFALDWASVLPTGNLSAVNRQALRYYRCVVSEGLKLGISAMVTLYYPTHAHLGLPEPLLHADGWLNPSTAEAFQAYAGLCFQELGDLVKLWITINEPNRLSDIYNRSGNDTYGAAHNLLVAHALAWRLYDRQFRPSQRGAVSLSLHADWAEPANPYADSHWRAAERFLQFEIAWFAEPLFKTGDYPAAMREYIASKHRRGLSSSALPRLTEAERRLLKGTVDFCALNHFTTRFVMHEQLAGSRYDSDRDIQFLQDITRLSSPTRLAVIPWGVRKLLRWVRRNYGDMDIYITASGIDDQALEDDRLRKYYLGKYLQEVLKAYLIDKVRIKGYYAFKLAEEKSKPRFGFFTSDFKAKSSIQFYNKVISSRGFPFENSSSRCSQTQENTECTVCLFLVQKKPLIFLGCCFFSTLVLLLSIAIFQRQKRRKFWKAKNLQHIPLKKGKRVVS
The data set can be described thus: SPR binding affinity and kinetics to human beta-Klotho (Biacore 8K, anti-human Fc capture). Here is the method:
Binding affinity and kinetics were measured on a Biacore 8K instrument (GE Healthcare). For the affinity capture of the diluted mAb sample, an anti-human Fc antibody (human antibody capture kit, GE Healthcare) was immobilized on all eight channels of a series S CM5 sensor chip (GE Healthcare) to approximately 10.000 RU. The anti-beta-Klotho antibodies were diluted into HBS-EP+ assay buffer (GE Healthcare) to 0.04 μg/mL. The antibodies were injected in the sample compartment, whereas the reference compartment was used without captured antibody. […] For the antigen inject the flow rate was adjusted to 60 μL/min with an association time of 180 sec and a dissociation time of 1800 sec. The maximum binding signal of beta-Klotho was in the range of 30 RU. At the end of each cycle an inject of regeneration solution, supplied with human antibody capture kit (GE Healthcare), supplemented with 10% non-specific binding reducer (GE Healthcare), for 1 min at 30 μL/min to remove antibody and antigen was performed. Binding kinetics data were evaluated with a 1:1 binding model using the Biacore 8K Evaluation Software version 1.1.1.7442 (GE Healthcare).
For interaction analysis with human beta-klotho, mAbs were captured via an anti-human Fc antibody immobilized on a series S CM5 sensor chip (human antibody capture kit, GE Healthcare). […] Binding kinetics data were evaluated with a 1:1 binding model using the Biacore 8K Evaluation Software version 1.1.1.7442 (GE Healthcare). For interaction analysis with Cynomolgus monkey beta-klotho, mAbs were captured via an anti-human Fc antibody immobilized on a series S CM5 sensor chip (human antibody capture kit, GE Healthcare). […] Binding kinetics data were evaluated with a 1:1 binding model using the Biacore 8K Evaluation Software version 1.1.1.7442 (GE Healthcare). Exemplary sensorgrams for the interaction are shown in FIG. 7 (human KLB) and 8 (monkey KLB), as well as in Table G.

The nature of data set [1]: Size-exclusion chromatography (SEC). Type of data set: physicochemical. On the procedure:
Analytical SEC was performed using a BioSECcurity instrument (PSS Polymer) with an AdvanceBio 300 column (4.6 mm×300 mm) and AdvanceBio 300 guard column (Agilent Technologies) at room temperature. The analysis was run at a flow rate of 0.5 mL/min using 2× concentrated D-PBS buffer (Thermo Fisher Scientific) with detection at 280 nm. 10 μL of protein sample (at 1 mg/mL) were applied onto the column. Data evaluation was performed using WinGPC software v8.1 (PSS Polymer). For estimation of the molecular weight, the SEC column was calibrated with the AdvanceBio SEC 300 Å Protein Standard (Agilent Technologies).
On the technique in general: In gel filtration, larger molecules generally elute earlier.

Data set [2] is described as follows: Capillary gel electrophoresis (cGE). Type of data set: physicochemical. On the procedure: Capillary Gel Electrophoresis (cGE) Purity and size heterogeneity of the samples was determined by capillary gel electrophoresis (cGE) using a CES18000 instrument (SCIEX) equipped with a pre-assembled fused silica capillary (50 μm×300 mm, SCIEX). Protein samples at 1 mg/ml were prepared using the IgG purity heterogeneity Kit (SCIEX) under non-reducing conditions according to the manufacturer's specifications. Samples were electrophoretically separated for 35 minutes at 25° C. and the absorbance at 220 nm was recorded by a photo diode array (PDA) detector. The data were analyzed using 32 Karat Software (SCIEX).

Data set [3] in a line: Intact mass spectrometry (IMS). Type of data set: physicochemical. The conditions noted are these: for intact mass Identity confirmed / intact mass Peak intensity post stress: 21 days. On the procedure: Protein integrity was analyzed by LC-MS. […] Reversed phase (RP) chromatography was done using a PLRP-S 1000A 5 μm, 50×2.1 mm (Agilent) with a guard column PLRP-S 300A 5 μm, 3×5 mm (Agilent) at 200 μL/min and 80° C. column temperature. Eluents were buffer A containing LC water and 0.1% formic acid as well as buffer B containing 90% acetonitrile, 10% LC water and 0.1% formic acid. 1 μg of protein was injected onto the column and eluted using linear gradient from 0 to 17 minutes with increasing acetonitrile concentration. Data was analyzed using MassHunter Bioconfirm B.06 (Agilent). Molecular masses were calculated based on the amino acid sequences of the proteins using GPMAW software version 10 (Lighthouse data).

Where [4] appears, read: SPR, 1:1 binding model, read-out: KD human KLB.

Like-named read-outs stand apart in the source and are kept apart here.

A word on the Kd: it is the equilibrium constant for the complex coming apart. As to “Ab0351: IgG4 PE; 16H7 VL (N25S, D49E, D50E, D91E, N93E); 16H7 VH (M34V, I83T, D109E); HC SEQ ID NO: 40, LC SEQ ID NO: 47”, in the data set with human beta-Klotho, the “affinity to human KLB compared to 16H7” value is reported as “comparable affinity”. Moreover, the Kd was 0.248 nM with human beta-Klotho (setting [4]) and 0.25 nM in the data set with human beta-Klotho (read-out: Affinity SPR KD). The “SEC % HMW” value is 1% in data set [1] (pH 5, 40° C., d 21); 2% in data set [1] (pH 5, d 0); 1% in data set [1] (pH 6, 40° C., d 21); 0% in data set [1] (pH 6, d 0); 2% in data set [1] (pH 8, 40° C., d 21); 1% in data set [1] (pH 8, d 0). In addition, the “SEC % LMW” value in data set [1] (pH 5, 40° C., d 21) came out at 0%; in data set [1] (pH 5, d 0), 0%; in data set [1] (pH 6, 40° C., d 21), 0%; in data set [1] (pH 6, d 0), 0%; in data set [1] (pH 8, 40° C., d 21), 1%; in data set [1] (pH 8, d 0), 0%. Further, the “Homogeneity cGE % Monomer” value in data set [2] stood at 83%. In data set [3], the “Identity, correct pairing, intact mass, Identity confirmed” value (shortened to “Identity, correct pairing, intact mass”) is listed as “Yes”. Further, the “intact mass Identity confirmed” value is “Yes” in data set [3] (pH 5, 40° C.); “Yes” in data set [3] (pH 6, 40° C.); “Yes” in data set [3] (pH 8, 40° C.). Moreover, the “intact mass Peak intensity post stress” value in data set [3] (pH 5, 40° C.) is reported as 90%; in data set [3] (pH 6, 40° C.), 96%; in data set [3] (pH 8, 40° C.) it was 77%.
In the case of “Ab0428: IgG1 NNAS; 16H7 VL (N25S, D49S, D50E, D91E, N93E); 16H7 VH (M34V, I83T, D109E); HC SEQ ID NO: 41, LC SEQ ID NO: 48”, the Kd with human beta-Klotho (setting [4]) is 0.205 nM; with human beta-Klotho (read-out: Affinity SPR KD), 0.21 nM. Also, the “SEC % HMW” value is reported as 1% in data set [1] (pH 5, 40° C., d 21); 2% in data set [1] (pH 5, d 0); 0% in data set [1] (pH 6, 40° C., d 21); 1% in data set [1] (pH 6, d 0); 1% in data set [1] (pH 8, 40° C., d 21); 1% in data set [1] (pH 8, d 0). Further, the “SEC % LMW” value in data set [1] (pH 5, 40° C., d 21) came to 2%; in data set [1] (pH 5, d 0), 0%; in data set [1] (pH 6, 40° C., d 21), 2%; in data set [1] (pH 6, d 0), 0%; in data set [1] (pH 8, 40° C., d 21), 3%; in data set [1] (pH 8, d 0), 0%. Further, the “Homogeneity cGE % Monomer” value in data set [2] is reported as 71%. In data set [3], the “Identity, correct pairing, intact mass” value is on record as “Yes”. Also, the “intact mass Identity confirmed” value in data set [3] (pH 5, 40° C.) is “Yes”; in data set [3] (pH 6, 40° C.), “Yes”; in data set [3] (pH 8, 40° C.) it was “Yes”. The “intact mass Peak intensity post stress” value is 84% in data set [3] (pH 5, 40° C.); 87% in data set [3] (pH 6, 40° C.); 56% in data set [3] (pH 8, 40° C.).
With “Ab0331: IgG4 PE; 16H7 VL (N25S, D49S, D50E, D91E, N93E); 16H7 VH (M34V, I83T, D109E); HC SEQ ID NO: 38, LC SEQ ID NO: 45”, the “affinity to human KLB compared to 16H7” value with human beta-Klotho is recorded as “comparable affinity”. Besides, the results for the Kd with human beta-Klotho (setting [4]) and in the data set with human beta-Klotho (read-out: Affinity SPR KD) were 0.206 nM and 0.21 nM, respectively. The “SEC % HMW” value stood at 1% in data set [1] (pH 5, 40° C., d 21); 1% in data set [1] (pH 5, d 0); 0% in data set [1] (pH 6, 40° C., d 21); 1% in data set [1] (pH 6, d 0); 1% in data set [1] (pH 8, 40° C., d 21); 2% in data set [1] (pH 8, d 0). The “SEC % LMW” value came out at 0% in data set [1] (pH 5, 40° C., d 21); 0% in data set [1] (pH 5, d 0); 0% in data set [1] (pH 6, 40° C., d 21); 0% in data set [1] (pH 6, d 0); 1% in data set [1] (pH 8, 40° C., d 21); 0% in data set [1] (pH 8, d 0). The “Homogeneity cGE % Monomer” value in data set [2] was found to be 77%. In data set [3], the “Identity, correct pairing, intact mass” value was “Yes”. For the same substance, the “intact mass Identity confirmed” value in data set [3] (pH 5, 40° C.) was “Yes”; in data set [3] (pH 6, 40° C.), “Yes”; in data set [3] (pH 8, 40° C.) it was “Yes”. Further, the “intact mass Peak intensity post stress” value amounted to 84% in data set [3] (pH 5, 40° C.); 97% in data set [3] (pH 6, 40° C.); 75% in data set [3] (pH 8, 40° C.).
“Ab0429: IgG1 NNAS; 16H7 VL (N25S, D49S, D50A, D91E, N93E); 16H7 VH (M34V, I83T, D109E); HC SEQ ID NO: 42, LC SEQ ID NO: 49”: the Kd with human beta-Klotho (setting [4]) came out at 0.186 nM; with human beta-Klotho (read-out: Affinity SPR KD), 0.19 nM. Moreover, the “SEC % HMW” value in data set [1] (pH 5, 40° C., d 21) is given as 1%; in data set [1] (pH 5, d 0), 2%; in data set [1] (pH 6, 40° C., d 21), 0%; in data set [1] (pH 6, d 0), 0%; in data set [1] (pH 8, 40° C., d 21), 1%; in data set [1] (pH 8, d 0) it was 2%. In addition, the “SEC % LMW” value in data set [1] (pH 5, 40° C., d 21) is recorded as 2%; in data set [1] (pH 5, d 0), 0%; in data set [1] (pH 6, 40° C., d 21), 1%; in data set [1] (pH 6, d 0), 0%; in data set [1] (pH 8, 40° C., d 21) it was 3%; in data set [1] (pH 8, d 0), 0%. Further, in data set [2], the “Homogeneity cGE % Monomer” value amounted to 66%. For the same substance, in data set [3], the “Identity, correct pairing, intact mass” value is “Yes”. Moreover, the “intact mass Identity confirmed” value in data set [3] (pH 5, 40° C.) was “Yes”; in data set [3] (pH 6, 40° C.), “Yes”; in data set [3] (pH 8, 40° C.), “Yes”. The “intact mass Peak intensity post stress” value in data set [3] (pH 5, 40° C.) amounted to 95%; in data set [3] (pH 6, 40° C.) it was 83%; in data set [3] (pH 8, 40° C.), 68%.

The values above are taken from patent US20250115669A1, “FGFR1/KLB Targeting Agonistic Antigen-Binding Proteins and Conjugates Thereof with GLP-1R Agonistic Peptides” (SANOFI, priority 2020, published 2025).
